Measured values published in the Human Domainome abundance scans (Beltran et al. 2025).

B1: CD2-associated protein, residues 271 to 331; numbered along this chain, Q9Y5K6 (parent)
chain: KEYCRTLFAYEGTNEDELTFKEGEIIHLISKETGEAGWWRGELNGKEGVFPDNFAVQINEL

Variants of: B1
Assay: abundance fitness (aPCA) (normalised: wild type 0, dead -1); higher = more abundant; growth selection in yeast, the domain comes from the species named
Details: Homo sapiens

Abundance fitness: each site, then its substitutions
L61: T 0.105; I -0.29; S 0.152; Y 0.064; C 0.275; K 0.033; R -0.049; M -0.003; W -0.116; H 0.009; P 0.215; Q 0.113; V 0.02; E 0.026
